One data set concerns the target T1, GST-Nuf2^1–169 (UniProt Q9BZD4 1-169).
T1 construct: Nuf2 (nuclear filament-containing protein 2), residues 1-169, with the calponin-homology domain
T1 sequence (looked up): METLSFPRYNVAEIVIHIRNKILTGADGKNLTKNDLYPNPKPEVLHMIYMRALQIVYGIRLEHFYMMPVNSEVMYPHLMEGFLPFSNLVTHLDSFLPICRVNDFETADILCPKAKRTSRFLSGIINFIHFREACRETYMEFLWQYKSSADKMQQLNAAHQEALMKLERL
Description: pull-down; GST-Hec1^1–196, GST-Hec1^1–196-9D or GST-Nuf2^1–169 on agarose beads as affinity matrices; MBP-tagged Mps1 truncations purified from E. coli; SDS-PAGE and anti-MBP blot. Particulars: both partners purified.

In the next data set the target is T2, GST-Hec1^1–196 (UniProt O14777 1-196).
T2 construct: Hec1 (highly expressed in cancer 1)
T2 sequence (looked up): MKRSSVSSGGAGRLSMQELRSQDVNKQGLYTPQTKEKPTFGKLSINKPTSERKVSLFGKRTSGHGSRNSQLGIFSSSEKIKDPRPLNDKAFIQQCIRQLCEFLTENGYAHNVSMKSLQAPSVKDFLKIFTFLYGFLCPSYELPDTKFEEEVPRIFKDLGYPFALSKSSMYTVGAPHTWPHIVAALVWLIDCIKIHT
The data set is described as above. As to conditions: both partners purified.

Data set [1] concerns the molecule itself. Nature of the data set: pull-down; GST-Mps1^C342-WT, GST-Mps1^C342-KD or GST-Mps1^PK-KD on agarose beads; purified 6× His-tagged Mps1^C342-WT or -KD; SDS-PAGE and anti-6× His blot (Figure 3C, Supplementary Figure S4E).

The text below walks through data of article PMC7493027, “Mps1 dimerization and multisite interactions with Ndc80 complex enable responsive spindle assembly checkpoint signaling” (Journal of Molecular Cell Biology, 2020).

B1: MBP-tagged Mps1 C-terminal extension (CTE, amino acids 193–300) (domain or fragment, human, UniProt P33981 193-300, looked up)
chain: QLLSEEEKKNLSASTVLTAQESFSGSLGHLQNRNNSCDSRGQTTKARFLYGENMPPQDAEIGYRNSLRQTNKTKQSCPFGRVPVNLLNSPDCDVKTDDSVVPCFMKRQ
notes: Mps1, human, C-terminal extension of N300, amino acids 193-300; source: Escherichia coli, purified
For the molecule B1, the binding result with GST-Nuf2^1–169 and in the data set with GST-Hec1^1–196 was “binds” throughout.

B2: MBP-tagged Mps1 tetratricopeptide repeat domain (TPR, amino acids 62–192) (domain or fragment, human, UniProt P33981 62-192, looked up)
chain: PEDWLSLLLKLEKNSVPLSDALLNKLIGRYSQAIEALPPDKYGQNESFARIQVRFAELKAIQEPDDARDYFQMARANCKKFAFVHISFAQFELSQGNVKKSKQLLQKAVERGAVPLEMLEIALRNLNLQKK
notes: Mps1, human, tetratricopeptide repeat domain, amino acids 62-192; also called Mps1^TPR; source: Escherichia coli, purified
As for B2, the binding result in the data set with GST-Nuf2^1–169 and with GST-Hec1^1–196 was “binds” in each case.

B3: Mps1^C342-WT fragment (amino acids 516–857), GST-tagged or 6× His-tagged (domain or fragment, human, UniProt P33981 516-857, looked up)
chain: ECISVKGRIYSILKQIGSGGSSKVFQVLNEKKQIYAIKYVNLEEADNQTLDSYRNEIAYLNKLQQHSDKIIRLYDYEITDQYIYMVMECGNIDLNSWLKKKKSIDPWERKSYWKNMLEAVHTIHQHGIVHSDLKPANFLIVDGMLKLIDFGIANQMQPDTTSVVKDSQVGTVNYMPPEAIKDMSSSRENGKSKSKISPKSDVWSLGCILYYMTYGKTPFQQIINQISKLHAIIDPNHEIEFPDIPEKDLQDVLKCCLKRDPKQRISIPELLAHPYVQIQTHPVNQMAKGTTEEMKYVLGQLVGLNSPNSILKAAKTLYEHYSGGESHNSSSSKTFEKKRGKK
notes: Mps1, human, amino acids 516-857: protein kinase domain (516-792) and C-tail (793-857); Two differently tagged copies of one fragment: the GST copy was the bait on beads, the 6× His copy the prey; each chain bears only one of the two tags; also called GST-Mps1^C342-WT; 6× His-Mps1^C342-WT; source: recombinant, purified
Turning to B3, the binding result in data set [1] is given as “binds”.
